Results as given in paper PMC11094772.
Read-outs that look alike come from different tables or passages of the source.

How the values were obtained:
Test in all cases: BLI
[1] = target: KRAS4B (residues 1-185, C118S) tethered to nanodiscs (UniProt P01116)
[2] = target: KRAS4B (residues 1-185, C118S) tethered to nanodiscs (UniProt P01116); remark: listed apart in the source
[3] = target: KRAS4B (residues 1-185, C118S) tethered to nanodiscs (UniProt P01116); remark: listed apart in the source
[4] = target: KRAS4B (residues 1-185, C118S) tethered to nanodiscs (UniProt P01116); remark: listed apart in the source

Substance | Kd [1] | koff [1] | kon [1] | Kd [2] | koff [2] | kon [2] | Kd [3] | koff [3] | kon [3] | Kd [4] | koff [4] | kon [4]
M-BRAF: monomeric MBP-BRAF(WT):14-3-3 complex (1 MBP-BRAF: 2 14-3-3) (from UniProt P15056 1-766) | 68.2 nM | 0.0016 s⁻¹ | 24000 M⁻¹ s⁻¹ | 93.3 nM | 0.00235 s⁻¹ | 25400 M⁻¹ s⁻¹ | 65.5 nM | 0.00266 s⁻¹ | 44200 M⁻¹ s⁻¹ | 177 nM | 0.00372 s⁻¹ | 21100 M⁻¹ s⁻¹
tagless dimeric BRAF(S365A):14-3-3 complex (MBP removed by TEV protease) (from UniProt P15056 1-766) |  |  |  |  |  |  |  |  |  | 25.5 nM |  | 
D-BRAF: dimeric MBP-BRAF(S365A):14-3-3 complex (2 MBP-BRAF: 2 14-3-3) (from UniProt P15056 1-766) | 18.5 nM | 0.00185 s⁻¹ | 105000 M⁻¹ s⁻¹ | 28.6 nM | 0.00269 s⁻¹ | 94100 M⁻¹ s⁻¹ | 29.1 nM | 0.0034 s⁻¹ | 106000 M⁻¹ s⁻¹ | 57.4 nM | 0.00395 s⁻¹ | 69000 M⁻¹ s⁻¹
tagless monomeric BRAF(WT):14-3-3 complex (MBP removed by TEV protease) (from UniProt P15056 1-766) |  |  |  |  |  |  |  |  |  | 35.5 nM |  | 
